Results published in patent WO2017055393A1.

What was measured:
[1] = molecular target: human Tim-3 (T cell Immunoglobulin- and Mucin domain-containing molecule 3) (human) (UniProt Q8TDQ0); assay: FACS, 10 ug/ml PE-labeled antibody on Kasumi-1 cells; geom. mean MFI sample / isotype control
[2] = molecular target: human Tim-3 (T cell Immunoglobulin- and Mucin domain-containing molecule 3) (human) (UniProt Q8TDQ0); assay: FACS, 10 ug/ml PE-labeled antibody on RPMI-8226 cells; geom. mean MFI sample / isotype control
[3] = molecular target: human Tim-3 (T cell Immunoglobulin- and Mucin domain-containing molecule 3) (human) (UniProt Q8TDQ0); assay: FACS, 10 ug/ml PE-labeled antibody on TF-1 cells; geom. mean MFI sample / isotype control
[4] = molecular target: human Tim-3 (T cell Immunoglobulin- and Mucin domain-containing molecule 3) (human) (UniProt Q8TDQ0); assay: FACS, 10 ug/ml PE-labeled antibody on RPMI-8226 cells; geom. mean MFI sample minus isotype control
[5] = molecular target: human Tim-3 (T cell Immunoglobulin- and Mucin domain-containing molecule 3) (human) (UniProt Q8TDQ0); assay: FACS, 10 ug/ml PE-labeled antibody on Pfeiffer cells; geom. mean MFI sample minus isotype control
[6] = molecular target: human Tim-3 (T cell Immunoglobulin- and Mucin domain-containing molecule 3) (human) (UniProt Q8TDQ0); assay: FACS, 10 ug/ml PE-labeled antibody on EOL-1 cells (24h pre-treated with 10 ng/ml PMA); geom. mean MFI sample minus isotype control
[7] = molecular target: human Tim-3 (T cell Immunoglobulin- and Mucin domain-containing molecule 3) (human) (UniProt Q8TDQ0); assay: FACS, 10 ug/ml PE-labeled antibody on TF-1 cells; geom. mean MFI sample minus isotype control
[8] = molecular target: human Tim-3 (T cell Immunoglobulin- and Mucin domain-containing molecule 3) (human) (UniProt Q8TDQ0); assay: FACS, 10 ug/ml PE-labeled antibody on SR cells; geom. mean MFI sample / isotype control
[9] = molecular target: human Tim-3 (T cell Immunoglobulin- and Mucin domain-containing molecule 3) (human) (UniProt Q8TDQ0); assay: FACS, 10 ug/ml PE-labeled antibody on KG-1 cells; geom. mean MFI sample / isotype control
[10] = molecular target: human Tim-3 (T cell Immunoglobulin- and Mucin domain-containing molecule 3) (human) (UniProt Q8TDQ0); assay: FACS, 10 ug/ml PE-labeled antibody on Karpas-299 cells; geom. mean MFI sample / isotype control
[11] = molecular target: human Tim-3 (T cell Immunoglobulin- and Mucin domain-containing molecule 3) (human) (UniProt Q8TDQ0); assay: FACS, 10 ug/ml PE-labeled antibody on Pfeiffer cells; geom. mean MFI sample / isotype control
[12] = molecular target: human Tim-3 (T cell Immunoglobulin- and Mucin domain-containing molecule 3) (human) (UniProt Q8TDQ0); assay: FACS, 10 ug/ml PE-labeled antibody on Kasumi-1 cells; geom. mean MFI sample minus isotype control
[13] = molecular target: human Tim-3 (T cell Immunoglobulin- and Mucin domain-containing molecule 3) (human) (UniProt Q8TDQ0); assay: FACS, 10 ug/ml PE-labeled antibody on EOL-1 cells (24h pre-treated with 10 ng/ml PMA); geom. mean MFI sample / isotype control
[14] = molecular target: human Tim-3 (T cell Immunoglobulin- and Mucin domain-containing molecule 3) (human) (UniProt Q8TDQ0); assay: FACS, 10 ug/ml PE-labeled antibody on KG-1 cells; geom. mean MFI sample minus isotype control
[15] = molecular target: human Tim-3 (T cell Immunoglobulin- and Mucin domain-containing molecule 3) (human) (UniProt Q8TDQ0); assay: FACS, 10 ug/ml PE-labeled antibody on SR cells; geom. mean MFI sample minus isotype control
[16] = molecular target: human Tim-3 (T cell Immunoglobulin- and Mucin domain-containing molecule 3) (human) (UniProt Q8TDQ0); assay: FACS, 10 ug/ml PE-labeled antibody on CMK cells; geom. mean MFI sample minus isotype control
[17] = molecular target: human Tim-3 (T cell Immunoglobulin- and Mucin domain-containing molecule 3) (human) (UniProt Q8TDQ0); assay: FACS, 10 ug/ml PE-labeled antibody on CMK cells; geom. mean MFI sample / isotype control
[18] = molecular target: human Tim-3 (T cell Immunoglobulin- and Mucin domain-containing molecule 3) (human) (UniProt Q8TDQ0); assay: FACS, 10 ug/ml PE-labeled antibody on Karpas-299 cells; geom. mean MFI sample minus isotype control

human Tim-3 (T cell Immunoglobulin- and Mucin domain-containing molecule 3) (human), sequence (Q8TDQ0 22-301): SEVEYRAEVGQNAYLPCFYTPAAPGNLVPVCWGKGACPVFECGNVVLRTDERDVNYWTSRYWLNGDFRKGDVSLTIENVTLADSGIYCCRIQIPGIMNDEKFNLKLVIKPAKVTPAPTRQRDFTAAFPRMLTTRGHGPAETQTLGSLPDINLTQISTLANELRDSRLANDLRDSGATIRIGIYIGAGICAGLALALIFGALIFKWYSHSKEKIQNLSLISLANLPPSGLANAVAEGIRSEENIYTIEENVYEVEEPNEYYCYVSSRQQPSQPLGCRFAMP

RFI (ratio of specific binding) [1]: 4 RFI
RFI (ratio of specific binding) [2]: 23 RFI
RFI (ratio of specific binding) [3]: 3 RFI
MFI (specific binding) [4]: 1790 MFI
MFI (specific binding) [5]: 3610 MFI
MFI (specific binding) [6]: 207 MFI
MFI (specific binding) [7]: 229 MFI
RFI (ratio of specific binding) [8]: 19 RFI
RFI (ratio of specific binding) [9]: 5 RFI
RFI (ratio of specific binding) [10]: 3 RFI
RFI (ratio of specific binding) [11]: 51 RFI
MFI (specific binding) [12]: 164 MFI
RFI (ratio of specific binding) [13]: 2 RFI
MFI (specific binding) [14]: 363 MFI
MFI (specific binding) [15]: 1050 MFI
MFI (specific binding) [16]: 384 MFI
RFI (ratio of specific binding) [17]: 5 RFI
MFI (specific binding) [18]: 247 MFI
Substance: PE labeled anti-TIM3 (clone 344823, R&D) (antibody)
